In the DeepSol protein solubility set:

Assay: soluble on expression in E. coli; label from the status in PepcDB or PDB records

Row | Sequence | soluble on expression in E. coli
1 | METGMVTVVNSNNFDVPRIYPPSSKSTSIHLTGFPTFYSKDHEYLLPVNLWFNYLVNIRKAVDITASVRALKRYWQFLETNNYSWDNFPANDYLKPTYRFRNDDLLKAARSGEIAFSTASMYILHVIKFYEWAAHERFITFTEENKPFNYQIVHIANSGMMSHNNPRFTVRSTDLRIRKPARNEQQKLNPLSQQELLFFADCLKECSDEFIIHQLLQIQSGLRVEEACTFPFSIVEMPNPHIHRYEVEIGIHNGVHTKFNKTRKVEIPNQLMRKMYDYSVSERRLKREKKTDGVNKTLLLNNLGNPLCSNNIQQHFRRLRHHIQNKHNIVFSHRTHDLRATYGTYRLDSLLDHLPVGDALALIMGWMGHKDDKTTWKYLRYLRKEKANQNAIVMLDQILEEAML | not soluble
2 | SLSPPVVMSRMFGAQLFNGTSADSGATVGFNPDYILNPGDSIQVRLWGAFTFDGALQVDPKGNIFLPNVGPVKVAGVSNSQLNALVTSKVKEVYQSNVNVYASLLQAQPVKVYVTGFVRNPGLYGGVTSDSLLNYLIKAGGVDPERGSYVDIVVKRGNRVRSNVNLYDFLLNGKLGLSQFADGDTIIVGPRQHTFSVQGDVFNSYDFEFRESSIPVTEALSWARPKPGATHITIMRKQGLQKRSEYYPISSAPGRMLQNGDTLIVSTDRYAGTIQVRVEGAHSGEHAMVLPYGSTMRAVLEKVRPNSMSQMNAVQLYRPSVAQRQKEMLNLSLQKLEEASLSAQSSTKEEASLRMQEAQLISRFVAKARTVVPKGEVILNESNIDSVLLEDGDVINIPEKTSLVMVHGEVLFPNAVSWQKGMTTEDYIEKCGGLTQKSGNARIIVIRQNGAAVNAEDVDSLKPGDEIMVLPKYESKNIEVTRGISTILYQLAVGAKVILSL | soluble
3 | MPMTLDLQPGQRLARGVARHLRAHGFVSVEEFVPARGLRVDVMGLGPKGEIWVIECKSSRADFQADAKWQGYLEWCDRYFWAVDMEFPAELLPAESGLLIADAYDAEIVRMAPEQKLAPARRKVLIQKFATHAARRLQALRDPEGHG | not soluble
4 | MGSDKIHHHHHHMDLWKLYQPGTPAAIVAWGQLGTAHAKTTYGLLRHSRLFKPVCVVAEHEGKMASDFVKPVRYDVPVVSSVEKAKEMGAEVLIIGVSNPGGYLEEQIATLVKKALSLGMDVISGLHFKISQQTEFLKIAHENGTRIIDIRIPPLELDVLRGGIYRKKIKVVGVFGTDCVVGKRTTAVQLWERALEKGIKAGFLATGQTGILIGADAGYVIDAVPADFVSGVVEKAVLKLEKTGKEIVFVEGQGALRHPAYGQVTLGLLYGSNPDVVFLVHDPSRDHFESFPEIPKKPDFEEERRLIETLSNAKVIGGVSLNGGFETDLPVYDPFNTDDLDEMLERAMVW | soluble
5 | MLPNGRKWLDLWRKNVTVTAGGFLAISATTGVAGYEMAKDDVTLIKNGNKQEIRTHAKTVKELLAEQNIQPRKEDYVYPSLHSPITDDLHIVWEASKEVTLTVNGKKKKIWTTADTVAELLRSQHVAVGAYDKVAPALSAKIQKGMDIGVEKAFPVHVNVGGKQQQVWTTSTTVADFLKQQGIQLGQFDRIEPSLHETVKEQMTIRVIRVKKVTDVVEEPVDFAVVTKRDDSLPKGERRVIQPGEKGMVQKTYEVTLENGKETARKLIAAKTLKESKARIVAIGTKTVRSAAAPDRPSSRGSDHAAKEFYVTATAYTAYCAGCSGITSTGINLRKNPSAKVIAVDPSIIPLGSKVYVEGYGYAIAADTGSGIRGYKIDVFFPERSDAFRWGRKRVKIRVLP | not soluble
6 | MDDIRKIERLAAASWPAYFQKSIGKWLLRANFGVTKRANSVWTSADMPEGDFQLEAELFYQSLGLPVCFHISNASPKGLDDALADSRYEKVDECFQMTALCRSIMSRTNDNSRFTYKWEQEPSSVWIDEFIQLEGFSPERHKGYKHIFERMPPCKTFFKMYDKESLTALGTVSVIDGYGGLSNIVVAEEHRGKGAGTQVIRVLTEWAKNNGAERMFLQVMKENLAAVSLYGKIGFSPISEHHYRIKRLEHHHHHH | not soluble
7 | MRAELNQGLIDFLKASPTPFHATASLARRLEAAGYRRLDERDAWHTETGGRYYVTRNDSSLIAIRLGRRSPLESGFRLVGAHTDSPCLRVKPNPEIARNGFLQLGVEVYGGALFAPWFDRDLSLAGRVTFRANGKLESRLVDFRKAIAVIPNLAIHLNRAANEGWPINAQNELPPIIAQLAPGEAADFRLLLDEQLLREHGITADVVLDYELSFYDTQSAAVVGLNDEFIAGARLDNLLSCHAGLEALLNAEGDENCILVCTDHEEVGSCSHCGADGPFLEQVLRRLLPEGDAFSRAIQRSLLVSADNAHGVHPNYADRHDANHGPALNGGPVIKINSNQRYATNSETAGFFRHLCQDSEVPVQSFVTRSDMGCGSTIGPITASQVGVRTVDIGLPTFAMHSIRELAGSHDLAHLVKVLGAFYASSELP | not soluble
8 | MPIHSLSLAGFRSIRKLTLELDALNVVVGANGCGKSNLYKSIQLLHAAAEGGLSAALAAEGGAQKAMWAGGTRRGDKARVPKRMILSARLDDYDYELQLGYPEPSCSLFALDPLVKEESLWLAGHGRRPSTLLLERRNQAAFLCGVEGERNSYPASLRAEESLFGQLAEPHRYPELSQVRETLRNWRFYHEFAIWPGSPLRAPQVGIRSPVLAHDGANLAAAFQTIVEIGDHELLHSVLTDAFPDSRFLVDAQQGRFQMLMRRDGLLRPLEAAELSDGTLRFLCLAVALLSPRPPAFMALNEPENSLHPALLPALARLIAEASRHSQLWVTSHSPELAERIRRHRPLKTFQLSLRDGETVLQDDLEHHHHHH | not soluble
9 | MGSSHHHHHHSSGLVPRGSHMASGMAPGGYVAPKAVWLPAVKAKGLEISGTFTHRQGHIYMEMNFTNKALQHMTDFAIQFNKNSFGVIPSTPLAIHTPLMPNQSIDVSLPLNTLGPVMKMEPLNNLQVAVKNNIDVFYFSCLIPLNVLFVEDGKMERQVFLATWKDIPNENELQFQIKECHLNADTVSSKLQNNNVYTIAKRNVEGQDMLYQSLKLTNGIWILAELRIQPGNPNYTLSLKCRAPEVSQYIYQVYDSILKN | soluble
10 | EVMLVESGGGLVKPGGSLKLSCAASGFTFSSYTMSWVRQTPEKRLEWVATISSGGGNTYYPDSVKGRFTISRDIAKNTLYLQMSSLRSEDTALYYCTRLGDYGYAYTMDYWGQGTSVTVSSAKTTPPSVYPLAPGGGGGGGAMVTLGCLVKGYFPEPVTVTWNSGSLSSGVHTFPAVLQSDLYTLSSSVTVPSSPWPSETVTCNVAHPASSTKVDKKIVPRDC | soluble
11 | MAHHHHHHMSAAVQTLATVMATDMNYYAGDPTVLAADAASSRVEQILQSSRSDQLTARVAIHAQLREAFKNVDVQQRFKPFLSDGENIQMYVQDAKARARFFSQKQQELQHDILQSEEQRQLKEAHGELAAWERENAVLLRHQMFMTYMPSQALLLESAATVALYRQYATLEEGQYTSDSSDGEVPMMLKKMGGKTYFTQSEQPFEVDTHNKMFSQQVLQNKRVEYEQMREKAAQLRQALEECPTVKRLEAFVELRNDIFVAYGIDRLASLCSRKDKEMGNPNEGGVDASLHGLPADDEYVSSSRVAQYSLPKIVDAAYKNYLNILSMDDWDAMMKHTGSNARAVMEKIKPMKDKETFRYWFLSCITADVPQMGPNKIVGQKATTLEDYKKFWAPQKSNYVPSLTSNRSIFGSKVADRRGLPHFLILSPVTYRYRENNDPNAVKTGTMDLMVYDATNEKVLLMLTNSSDERRPRAAFLKAQEERYRFAAVVRSAITYENQYHGFECEGTVAEYFFDAQEGPEENYYCIMAPHRVYSKQPNKVQVPMKALRPFTSCPPRYFVLGSNWGVSAGTRRNPYPASYAHVELNENAVGLSNVIPDGFISSKVLPQLLSHAEGVQKLEEEMKRQQRAELERPQLSPRALTRASRGGAATPRPSTAPPSPENNAADILADENMRGPGEEEDPLSPLVPNEVLRPVRDQLLKQRRSWQSPAYIAFRARDSDLRRLPAVKDGHLRTPLNVFNDLMREKHGEDAPPASAPSSARRSNGPPSSRTASVACT | not soluble
12 | MDGGFVRVCLLASGSKGNSLFVESDGTRVLIDAGLSAREIVRRLAVIEVEPADLDGLFISHEHVDHVRGVGVLARKYRLPVHVSYPTHHEVREGFGDAPVVEFESGYSFGFRDLLIDPFPITHDACDPVGFTIESKEGKVGIATDLGTATRLVADKLKRCRVLVLESNHDEEMLMGGPYPWHLKQRIKSRHGHLSNNDSAALLAEVLHPGLEGLFLAHLSEVNNDPAVAKEVAENLLVAQTTCSPRLIVGDQYRPSETLTLLEHHHHHH | soluble
